The record followed here is PMC9002095 (2022).

For one test, the target named is human CD47 (human, UniProt Q08722 19-323). Kind of test: SPR. On the technique in general: Surface plasmon resonance follows binding to a sensor surface in real time, without labels.
The next test has as its target BSA (bovine, UniProt P02769 25-607). Kind of test: ELISA. (An ELISA detects its analyte on a solid surface through an enzyme-linked reagent.)

Sequence of BSA (P02769 25-607): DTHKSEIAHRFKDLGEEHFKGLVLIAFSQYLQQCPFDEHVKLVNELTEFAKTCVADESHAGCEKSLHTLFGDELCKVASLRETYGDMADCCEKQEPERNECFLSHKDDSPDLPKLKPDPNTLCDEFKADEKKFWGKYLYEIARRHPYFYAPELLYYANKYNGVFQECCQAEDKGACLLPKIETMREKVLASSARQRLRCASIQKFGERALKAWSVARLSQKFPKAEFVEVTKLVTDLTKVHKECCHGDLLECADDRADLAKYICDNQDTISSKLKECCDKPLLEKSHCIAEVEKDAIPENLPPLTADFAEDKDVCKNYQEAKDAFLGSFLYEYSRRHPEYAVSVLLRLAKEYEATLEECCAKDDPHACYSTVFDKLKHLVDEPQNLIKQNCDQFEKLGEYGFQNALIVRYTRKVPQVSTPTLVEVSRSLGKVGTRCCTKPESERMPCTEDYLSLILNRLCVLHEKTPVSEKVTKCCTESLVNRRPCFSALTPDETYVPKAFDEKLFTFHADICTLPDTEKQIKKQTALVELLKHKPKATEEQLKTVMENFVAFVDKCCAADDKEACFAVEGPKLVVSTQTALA
Sequence of human CD47 (Q08722 19-323): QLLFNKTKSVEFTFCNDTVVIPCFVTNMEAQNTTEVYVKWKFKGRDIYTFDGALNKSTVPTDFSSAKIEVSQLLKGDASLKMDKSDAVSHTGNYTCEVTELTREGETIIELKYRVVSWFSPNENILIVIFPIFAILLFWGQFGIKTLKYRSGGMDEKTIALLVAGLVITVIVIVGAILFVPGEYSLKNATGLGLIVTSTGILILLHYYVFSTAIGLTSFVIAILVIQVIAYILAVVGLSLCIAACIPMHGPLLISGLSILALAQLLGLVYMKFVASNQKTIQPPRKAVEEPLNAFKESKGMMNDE

B1: TKKTLRT–SIRPαFc conjugate (Fc fusion)
chain 1: EEELQVIQPDKSVLVAAGETATLRCTATSLIPVGPIQWFRGAGPGRELIYNQKEGHFPRVTTVSDLTKRNNMDFSIRIGNITPADAGTYYCVKFRKGSPDDVEFKSG
chain 2: TKKTLRTC
modifications: free amino groups joined through Sulfo-SMCC to the cysteine of the peptide TKKTLRTC; one or two peptides on one SIRPαFc (MALDI-TOF-MS); sites not told | sulfhydryl of the C-terminal cysteine joined to the maleimide group of Sulfo-SMCC
For B1, the koff – broadly, the rate constant with which the complex falls apart – with human CD47 amounted to 0.00958 s⁻¹. In the test with BSA, the affinity, expressed as Kd, was 56.8 nM.

B2: human SIRPαFc fusion protein (Fc fusion)
chain: B1 chain 1
For B2, the koff with human CD47 came to 0.00727 s⁻¹. Moreover, the Kd (as a rule, the equilibrium constant for the complex coming apart) with BSA came out at 4.25 nM.
